Experiments:
[1] = biological target: T1, Human Fas (CD95) on the cell surface (human, UniProt P25445 26-335); assay: flow cytometry on SKW6.4 cells, FITC anti-human IgG secondary, geometric MFI after background subtraction
T1 construct: also called APO-1; TNR6_Human
T1 sequence: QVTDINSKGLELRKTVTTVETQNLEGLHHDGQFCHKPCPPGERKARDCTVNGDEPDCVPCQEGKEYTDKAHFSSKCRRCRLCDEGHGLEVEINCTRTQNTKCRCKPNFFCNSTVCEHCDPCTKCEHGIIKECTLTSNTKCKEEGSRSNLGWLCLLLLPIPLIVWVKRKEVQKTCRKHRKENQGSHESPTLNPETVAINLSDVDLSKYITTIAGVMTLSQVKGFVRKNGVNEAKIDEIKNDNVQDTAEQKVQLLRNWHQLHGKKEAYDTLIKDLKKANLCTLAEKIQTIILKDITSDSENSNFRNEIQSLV
Description: Binding of F45D9-γ1 and F45D9-γ4 to the surface of Fas expressing Jurkat and SKW6.4 cells (from ATCC, Jurkat, clone E6-1, ATCC-TIB-152, Human T Leukemia cell line); SKW6.4 cells, ATCC-TIB-215, Human B lymphoblastoid cell line) was explored by immunofluorescence staining and flow cytometry analysis. Cells were cultured in RPMI 1640 medium (GIBCO, Cat. 3105205) supplemented with 2 mM glutamax (GIBCO), 100 UI/mL penicillin, 100 μg/mL streptomycin (Sigma) and 5-10% fetal bovine serum (GIBCO), at 37° C. and 5% CO₂. After washing in PBS Jurkat or SKW6.4 cells (0.2×10⁶ cells/well) were incubated in staining buffer (PBS/1% FBS) containing F45D9-γ1, F45D9-γ4 or human IgG control antibodies (Human IgG1, kappa, Sigma, Cat. I5154 or Human IgG4, kappa, Sigma, Cat. I4639) in a 96-well U-bottom plate for 30 min on ice, in a 100 ul/well volume. Cells were then washed once with staining buffer, and further incubated for 30 min on ice with 1:30 dilution of FITC-conjugated rabbit F(ab′)₂ anti-human IgG (DakoCytomation Cat. F0056). After washing and fixing with 1% formaldehyde in PBS cells were analyzed in a FACScan (Becton Dickinson, Mountain View, Calif.). The reactivity of F45D9-γ1 and F45D9-γ4 to the surface of Jurkat cells was quantified and Geometric Mean Fluorescence Intensity (MFI) after background subtraction (FIG. 1A) and histograms (FIG. 1B) are shown. […]

[2] = biological target: T1, Human Fas (CD95) on the cell surface; assay: flow cytometry on the human B cell line SKW6.4, FITC anti-human IgG secondary, MFI after subtraction of the control human γ1 staining
[3] = biological target: T2, Recombinant human soluble Fas receptor (PeproTech, Cat. 310-20) (human, UniProt P25445 17-173); assay: SPR (BIAcore 3000), soluble Fas immobilized on CM5 chip, antibody as analyte, bivalent analyte fit
T2 construct: Bought soluble form; also called sFas; rFas
T2 sequence (looked up): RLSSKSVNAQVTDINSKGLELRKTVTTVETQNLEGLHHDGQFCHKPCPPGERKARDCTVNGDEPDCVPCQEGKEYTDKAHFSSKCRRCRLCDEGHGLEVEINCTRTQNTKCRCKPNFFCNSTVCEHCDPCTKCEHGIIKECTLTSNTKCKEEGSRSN
Description: The interaction of F45D9 mAb's (γ-γ1 and γ4-isotypes) with immobilized soluble human Fas receptor was monitored by surface plasmon resonance detection using a BIAcore 3000 instrument. Recombinant human soluble Fas receptor (srFas) (PeproTech, cat. 310-20) was immobilized (concentration of 5 ug/ml in immobilization buffer: 10 mM sodium acetate pH 5.0) onto a CM5 sensor chip (BIAcore BR-1001-14) using an Amine Coupling kit (BIAcore, Cat. BR-1000-50), at a surface density of […] resonance units (RU). Deactivation of excess reactive groups on the chip surface was done by adding 1.0 M ethalonamine hydrochloride (pH 8.5). F45D9 mAb's-γ1 mAb were passed over the surface in equilibrium binding experiments at concentrations ranging from […] at a flow rate of 30 ul/min. Dilutions and binding experiments were conducted in 0.01 M HEPES (pH 7.4), 0.15 M NaCl, 3 mM EDTA, and 0.005% P-20 (BIAcore surfactant, BR-1001-88). Between each cycle 100 mM HCl was used to regenerate the surfaces at a flow rate 30 ul/min. KA and KD of F45D9 mAb's were-γ1 mAb was determined by fitting bivalentusing BIAcore models (BIAevaluation).

B1: F45D9-γ1 mAb (recombinant human mAb T17/B2-1G4, gamma-1 isotype) (antibody, V domains shown)
VH: QVQLQQWGAGLLKPSETLSLICAVYGGSFSTYYWTWIRQPPGKGLEWIGEINHRGTTNYSPSLKSRVTISVDTSKNHISLNLTSVTAADTALYYCARGLLWIGEGDYGLDVWGQGTTVTVSS
VL: DIQMTQSPSSLSASVGDRVTITCRASQGIRRWLAWYQQKPEKAPKSLIYAASSLQSGVPSRFSGSGSGTDFTLTISSLQPEDFATYYCQQYNSYPYTFGQGTKLEIKR
notes: Whole human IgG1 (γ1fa allotype) with human kappa light chain, made in CHO DG44 cells; also called IgG1; T17/L18/B2-1G4
EC50 (read off the curve) [1]: ~0.4 µg/mL
EC50 (read off the curve) [2]: ~0.8 µg/mL
Kd [3]: 0.0411 nM
